Measurements reported in patent US8642284B1, “Methods for identifying agents that alter NAD-dependent deacetylation activity of a SIR2 protein” (Massachusetts Institute of Technology, priority 1999, dated 2014).
Numbering of substitutions follows the chain as printed. Names and notes keep the numbering of the source.

B1: P285A: recombinant mSir2α core domain mutant, residue changed to alanine (protein)
chain: MADEVALALQAAGSPSAAAAMEAASQPADEPLRKRPRRDGPGLGRSPGEPSAAVAPAAAGCEAASAAAPAALWREAAGAAASAEREAPATAVAGDGDNGSGLRREPRAADDFDDDEGEEEDEAAAAAAAAAIGYRDNLLLTDGLLTNGFHSCESDDDDRTSHASSSDWTPRPRIGPYTFVQQHLMIGTDPRTILKDLLPETIPPPELDDMTLWQIVINILSEPPKRKKRKDINTIEDAVKLLQECKKIIVLTGAGVSVSCGIPDFRSRDGIYARLAVDFPDLPDAQAMFDIEYFRKDPRPFFKFAKEIYPGQFQPSLCHKFIALSDKEGKLLRNYTQNIDTLEQVAGIQRILQCHGSFATASCLICKYKVDCEAVRGDIFNQVVPRCPRCPADEPLAIMKPEIVFFGENLPEQFHRAMKYDKDEVDLLIVIGSSLKVRPVALIPSSIPHEVPQILINREPLPHLHFDVELLGDCDVIINELCHRLGGEYAKLCCNPVKLSEITEKPPRPQKELVHLSELPPTPLHISEDSSSPERTVPQDSSVIATLVDQATNNNVNDLEVSESSCVEEKPQEVQTSRNVENINVENPDFKAVGSSTADKNERTSVAETVRKCWPNRLAKEQISKRLEGNQYLFVPPNRYIFHGAEVYSDSEDDVLSSSSCGSNSDSGTCQSPSLEEPLEDESEIEEFYNGLEDDTERPECAGGSGFGADGGDQEVVNEAIATRQELTDVNYPSDKS
modifications: left off: small tags and cut ends
notes: recombinant mSir2α core domain mutant, residue changed to alanine
B2: G253A: recombinant mSir2α core domain mutant, glycine 253 changed to alanine (protein)
chain: B1 chain with G253A, A285P
modifications: left off: small tags and cut ends
notes: recombinant mSir2α core domain mutant, glycine 253 changed to alanine
B3: G255A: recombinant mSir2α core domain mutant, residue changed to alanine (protein)
chain: B1 chain with G255A, A285P
modifications: left off: small tags and cut ends
notes: as for B1
B4: S257A: recombinant mSir2α core domain mutant, residue changed to alanine (protein)
chain: B1 chain with S257A, A285P
modifications: left off: small tags and cut ends
notes: as for B1
B5: I262A: recombinant mSir2α core domain mutant, residue changed to alanine (protein)
chain: B1 chain with I262A, A285P
modifications: left off: small tags and cut ends
notes: as for B1
B6: F265A: recombinant mSir2α core domain mutant, residue changed to alanine (protein)
chain: B1 chain with F265A, A285P
modifications: left off: small tags and cut ends
notes: as for B1
B7: G270A: recombinant mSir2α core domain mutant, residue changed to alanine (protein)
chain: B1 chain with G270A, A285P
modifications: left off: small tags and cut ends
notes: as for B1
B8: T336A: recombinant mSir2α core domain mutant, residue changed to alanine (protein)
chain: B1 chain with A285P, T336A
modifications: left off: small tags and cut ends
notes: as for B1
B9: H355A: recombinant mSir2α core domain mutant, residue changed to alanine (protein)
chain: B1 chain with A285P, H355A
modifications: left off: small tags and cut ends
notes: as for B1
B10: R266A: recombinant mSir2α core domain mutant, residue changed to alanine (protein)
chain: B1 chain with R266A, A285P
modifications: left off: small tags and cut ends
notes: as for B1

Tested on: histone H2B
Test: ADP-ribosylation activity of wild type and mutant recombinant mSir2α proteins on histones
Format: biochemical, calf
Settings: 10 μg recombinant protein; H2B radioactivity, wild type = 100%
Method: Site-directed mutagenesis of mSIR2α core domain was performed with the GeneEditor™ system (Promega, Madison, Wis.) according to the procedure provided by the manufacturer. The mutant recombinant proteins were prepared in the same way as described above.
The typical reaction was performed in 50 or 100 μl of the buffer containing 5 mM Tris-HCl [pH8.0 or 9.0], 4 mM MgCl2, 0.2 mM DTT, 1 μM cold β-NAD^+ (SIGMA®) and 8 μCi nicotinamide adenine dinucleotide 5′[α-^32P]triphosphate (NAD) as a donor of ADP-ribose (˜1000 Ci/mmol, Amersham Pharmacia Biotech). To check the sensitivity to poly- or mono-ADP-ribosylation inhibitors, 3-aminobenzamide (ICN Pharmaceuticals, CA), benzamide, novobiocin and coumermycin A1 (SIGMA®) were added to the reactions prior to adding Sir2 proteins, respectively. The wild type or mutant recombinant proteins (0.5-1 μg for ySir2p and 10 μg of mSir2α) were added with 4 μg of each histone purchased from Roche Molecular Biochemicals (Indianapolis, Ind.). For the peptide experiments, 5-10 μg of unacetylated or acetylated N-terminal tail peptides (amino acids 1-20) of H3 and H4 purchased from Upstate Biotechnology™ (Lake Placid, N.Y.) were used as substrates of the yeast and mouse Sir2 recombinant proteins.
To analyze histone modification, 25 μl of 100% trichloroacetic acid (TCA) solution was mixed to the reaction mixture and left on ice for 15 min. The protein precipitates were centrifuged at 4° C. and washed with 5 or 20% TCA solution twice. The pellets were dissolved in 15 μl of Leammli's sample buffer and boiled for 1.5 min. The proteins were electrophoresed in a 10-20% gradient SDS-PAGE gel. The gel was stained with COOMASSIE® Brilliant Blue R-250 (GibcoBRL Life Technologies™, Frederick, Md.) to check equal loading of histones, dried, and exposed to KODAK® X-OMAT film.
Aliquots of recombinant protein (10 μg) of the wild type recombinant mSir2α (WT), the pET control pET, and the mutant proteins (G253A, G255A, S257A, I262A, F265A, R266A, G270A, P285A, T336A, H355A) were incubated with H2B or H3. […] All of the mutations of highly conserved residues dramatically affected the mono-ADP-ribosylation activity of mSir2α (FIG. 6B). The results were similar using H2B or H3.
The radioactivity of H2B modified by the wild type is assigned to 100% and other data were normalized according to the wild type activity and blots quantitated by Phosphorimaging. The averages and the standard deviations were calculated from two independent experiments. In the core domain of ySir2p, mutations on highly conserved residues also affected the mono-ADP-ribosylation activity. Therefore, the core domain of Sir2 proteins contain the catalytic activity of mono-ADP-ribosylation and the evolutionarily conserved residues in the core domain are essential for this activity.

Molecule	mono-ADP-ribosylation activity compared to the wild type activity
B1	5%
B2	completely abolished the activity
B3	completely abolished the activity
B4	completely abolished the activity
B5	completely abolished the activity
B6	completely abolished the activity
B7	completely abolished the activity
B8	completely abolished the activity
B9	completely abolished the activity
B10	18%
